Test results reported in paper PMC12287161, “A bioactive soluble recombinant mouse LIGHT promotes effective tumor immune cell infiltration delaying tumor growth” (Journal of Molecular Medicine (Berlin, Germany), 2025).

T1: mHVEM:Fas (mouse | human, UniProt Q80WM9 39-206; P25445 169-335)
T1 chain: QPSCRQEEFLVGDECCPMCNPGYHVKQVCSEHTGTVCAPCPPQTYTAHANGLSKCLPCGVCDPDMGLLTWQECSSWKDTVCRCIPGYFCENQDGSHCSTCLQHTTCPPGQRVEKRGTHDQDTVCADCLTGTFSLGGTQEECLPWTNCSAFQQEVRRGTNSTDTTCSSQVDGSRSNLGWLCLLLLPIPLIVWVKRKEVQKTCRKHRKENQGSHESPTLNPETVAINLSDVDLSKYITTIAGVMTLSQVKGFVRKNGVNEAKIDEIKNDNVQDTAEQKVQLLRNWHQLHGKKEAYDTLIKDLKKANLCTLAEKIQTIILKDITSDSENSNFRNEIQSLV


Tests used:
mHVEM:Fas = molecular target: T1, mHVEM:Fas; test: cell-based or functional assay
[1] = molecular target: the molecule itself; test: SEC; Superdex S200 Increase HR 10/30 in PBS, 0.55 ml/min, 250 µl of affinity-purified protein; 1 ml fractions analysed by Western blot and on reporter cells; column calibrated with protein standards

Row | Binder | EC50 of killing of mHVEM:Fas reporter cells (MTS/PMS) by conditioned supernatants of B16.F10 cells expressing Ig.Foldon-mLIGHT (mHVEM:Fas) [µg/mL] | EC50 of killing of mHVEM:Fas reporter cells (MTS/PMS) by purified Ig.Foldon-mLIGHT (mHVEM:Fas) [µg/mL] | stoichiometry N [1]
1 | Ig.Foldon-mLIGHT (Fc fusion) GYIPEAPRDGQAYVRKDGEWVLLSTFLDGGKGSWEKLIQDQRSHQANPAAHLTGANASLIGIGGPLLWETRLGLAFLRGLTYHDGALVTMEPGYYYVYSKVQLSGVGCPQGLANGLPITHGLYKRTSRYPKELELLVSRRSPCGRANSSRVWWDSSFLGGVVHLEAGEEVVVRVPGNRLVRPRDGTRSYFGAFMV | 0.0019 | 0.051 | 
2 | Flag-Foldon-mLIGHT (ligand, Foldon, small homotrimeric domain; mouse LIGHT (TNFSF14, CD258), aa 72-239 of the 239 amino acids-long protein; the majority ran as poorly active species of around 500 kDa; also called pIB-173; source: HEK-293T, conditioned supernatant) GYIPEAPRDGQAYVRKDGEWVLLSTFLDGGKGSWEKLIQDQRSHQANPAAHLTGANASLIGIGGPLLWETRLGLAFLRGLTYHDGALVTMEPGYYYVYSKVQLSGVGCPQGLANGLPITHGLYKRTSRYPKELELLVSRRSPCGRANSSRVWWDSSFLGGVVHLEAGEEVVVRVPGNRLVRPRDGTRSYFGAFMV |  |  | 3
